Experimental data as given in patent publication US20240076384A1 (DRAGONFLY THERAPEUTICS, published 2024).
Positions count from the first letter of the chain named.

T1: human NKG2D expressed on EL4 cells (human, UniProt P26718 1-216)
T1 construct: whole, on cells; also called NKG2D on EL4 cells; extracellular NKG2D expressed on EL4 cells
T1 sequence (looked up): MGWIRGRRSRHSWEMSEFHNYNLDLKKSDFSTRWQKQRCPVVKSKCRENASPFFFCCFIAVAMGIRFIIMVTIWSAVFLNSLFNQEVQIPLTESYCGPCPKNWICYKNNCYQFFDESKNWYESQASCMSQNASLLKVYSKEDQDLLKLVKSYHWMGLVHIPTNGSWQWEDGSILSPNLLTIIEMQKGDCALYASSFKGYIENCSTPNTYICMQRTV

T2: ULBP6 (NKG2D natural ligand) (Homo sapiens (Human), UniProt Q5VY80 26-218)
T2 sequence: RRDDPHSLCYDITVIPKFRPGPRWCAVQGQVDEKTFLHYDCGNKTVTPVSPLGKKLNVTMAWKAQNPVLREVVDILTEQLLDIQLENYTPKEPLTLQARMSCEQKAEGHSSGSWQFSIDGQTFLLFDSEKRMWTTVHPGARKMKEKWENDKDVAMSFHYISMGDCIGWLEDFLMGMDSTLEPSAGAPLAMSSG

B1: CD33-TriNKET-A44 (ADI-27744 and a CD33 binding domain) (bispecific antibody, V domains shown)
VH 1: not shown
VL 1: DIQMTQSPSSVSASVGDRVTITCRASQGIDSWLAWYQQKPGKAPKLLIYAASSLQSGVPSRFSGSGSGTDFTLTISSLQPEDFATYYCQQGVSYPRTFGGGTKVEIK
VH 2: QVQLVQSGAEVKKPGASVKVSCKASGYTFTDYVVHWVRQAPGQGLEWMGYINPYNDGTKYNEKFKGRVTMTRDTSISTAYMELSRLRSDDTAVYYCARDYRYEVYGMDYWGQGTLVTVSS
VL 2: DIVLTQSPASLAVSPGQRATITCTASSSVNYIHWYQQKPGQPPKLLIYDTSKVASGVPARFSGSGSGTDFTLTINPVEANDTANYYCQQWRSYPLTFGQGTKLEIK
B2: CD33-TriNKET-A49 (ADI-27749 and a CD33 binding domain) (bispecific antibody, V domains shown)
VH 1: EVQLVESGGGLVKPGGSLRLSCAASGFTFSSYSMNWVRQAPGKGLEWVSSISSSSSYIYYADSVKGRFTISRDNAKNSLYLQMNSLRAEDTAVYYCARGAPMGAAAGWFDPWGQGTLVTVSS
VL 1: B1 VL 1 with D30S, Y94F
VH 2: B1 VH 2
VL 2: B1 VL 2
B3: NKG2D monoclonal antibody comprising ADI-27749 (antibody, V domains shown)
VH: B2 VH 1
VL: B1 VL 1 with D30S, Y94F
notes: also called A49
B4: CD33-TriNKET-F63 (ADI-29463 and a CD33 binding domain) (bispecific antibody, V domains shown)
VH 1: not shown
VL 1: EIVLTQSPGTLSLSPGERATLSCRASQSVSSNLAWYQQKPGQAPRLLIYGASTRATGIPARFSGSGSGTEFTLTISSLQSEDFAVYYCQQDDYWPPTFGGGTKVEIK
VH 2: B1 VH 2
VL 2: B1 VL 2
B5: NKG2D monoclonal antibody comprising ADI-27744 (antibody, V domains shown)
VH: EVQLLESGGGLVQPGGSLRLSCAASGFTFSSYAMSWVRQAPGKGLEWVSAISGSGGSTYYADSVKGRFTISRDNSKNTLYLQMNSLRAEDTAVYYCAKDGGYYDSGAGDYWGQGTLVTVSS
VL: B1 VL 1
notes: also called A44
B6: soluble mouse Fc-human NKG2D dimer (Fc fusion, UniProt P26718 78-216, looked up)
chain: FLNSLFNQEVQIPLTESYCGPCPKNWICYKNNCYQFFDESKNWYESQASCMSQNASLLKVYSKEDQDLLKLVKSYHWMGLVHIPTNGSWQWEDGSILSPNLLTIIEMQKGDCALYASSFKGYIENCSTPNTYICMQRTV
notes: also called mFc-hNKG2D; fusion protein of human NKG2D and murine Fc; not shown: mouse (murine) Fc
B7: NKG2D monoclonal antibody comprising F47 (antibody, V domains shown)
VH: QVQLQQWGAGLLKPSETLSLTCAVYGGSFSGYYWSWIRQPPGKGLEWIGEIDHSGSTNYNPSLKSRVTISVDTSKNQFSLKLSSVTAADTAVYYCARARGPWSFDPWGQGTLVTVSS
VL: DIQMTQSPSTLSASVGDRVTITCRASQSISSWLAWYQQKPGKAPKLLIYKASSLESGVPSRFSGSGSGTEFTLTISSLQPDDFATYYCQQYDTFITFGGGTKVEIK
notes: Monoclonal antibody
B8: Human monoclonal antibody containing NKG2D-binding domain ADI-29379 (antibody, V domains shown)
VH: QVQLVQSGAEVKKPGASVKVSCKASGYTFTSYYMHWVRQAPGQGLEWMGIINPSGGSTSYAQKFQGRVTMTRDTSTSTVYMELSSLRSEDTAVYYCARGAPNYGDTTHDYYYMDVWGKGTTVTVSS
VL: B4 VL 1 with L4M, G9A, L13V, D91Y, Y93D, P96F
notes: Tested as a human monoclonal antibody; also called E79; ADI-29379 (E79)
B9: Human monoclonal antibody containing NKG2D-binding domain ADI-29378 (antibody, V domains shown)
VH: QVQLVQSGAEVKKPGASVKVSCKASGYTFTSYYMHWVRQAPGQGLEWMGIINPSGGSTSYAQKFQGRVTMTRDTSTSTVYMELSSLRSEDTAVYYCAREGAGFAYGMDYYYMDVWGKGTTVTVSS
VL: B4 VL 1 with G9A, N32Y, G50D, T53N, E70D, Q79E, S80P, D91S, Y93N, P96F
notes: Tested as a human monoclonal antibody; also called E78; ADI-29378 (E78)

Key:
[1] = target: T3, CD33 expressed on human AML cell line MV4-11 (human, UniProt P20138 18-364); experiment: flow cytometry on Mv4-11 cells, anti-human IgG secondary, fold over background against secondary antibody control
T3 construct: whole, on cells; also called CD33 expressed on Mv4-11 cells
T3 sequence (P20138 18-364): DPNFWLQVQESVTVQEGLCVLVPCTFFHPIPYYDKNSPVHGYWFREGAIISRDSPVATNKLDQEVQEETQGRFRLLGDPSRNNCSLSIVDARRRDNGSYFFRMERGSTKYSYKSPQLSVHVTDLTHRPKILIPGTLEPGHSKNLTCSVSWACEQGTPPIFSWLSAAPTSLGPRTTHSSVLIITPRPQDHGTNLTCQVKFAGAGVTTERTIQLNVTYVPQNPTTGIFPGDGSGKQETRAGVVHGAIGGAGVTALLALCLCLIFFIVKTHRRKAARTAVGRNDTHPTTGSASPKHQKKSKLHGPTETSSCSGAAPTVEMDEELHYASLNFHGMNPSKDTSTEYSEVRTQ
Procedure: Human AML cell line MV4-11, expressing CD33 was used to assay the binding of TriNKETs to the tumor-associated antigen. TriNKETs and the parental CD33 monoclonal antibody were incubated with the cells, and the binding was detected using fluorophore-conjugated anti-human IgG secondary antibodies. Cells were analyzed by flow cytometry, and fold-over-background (FOB) was calculated using the mean fluorescence intensity (MFI) from TriNKETs and the parental monoclonal CD33 antibody normalized to secondary antibody controls.

[2] = target: T1, human NKG2D expressed on EL4 cells; experiment: flow cytometry on EL4 cells expressing NKG2D, anti-human IgG secondary, fold over background against parental EL4 cells
Procedure: EL4 mouse lymphoma cell lines were engineered to express human NKG2D. […] The binding of the multispecific binding proteins to NKG2D was detected using fluorophore-conjugated anti-human IgG secondary antibodies. Cells were analyzed by flow cytometry, and fold-over-background (FOB) was calculated using the mean fluorescence intensity (MFI) of NKG2D expressing cells compared to parental EL4 cells.

[3] = target: B6; experiment: SPR (Biacore 8K), antibody captured on anti-human Fc, soluble mouse Fc-human NKG2D dimer as analyte, 37 C, 1:1 fit
Procedure: (§1) Kinetics and affinity of various NKG2D-binding domains were assessed by surface plasmon resonance using Biacore 8K instrument (GE Healthcare). Anti-human Fc antibody was immobilized on a CM5 chip using standard amine coupling chemistry. Human monoclonal antibodies containing various NKG2D-binding domains were captured on the anti-human Fc chip at a density of approximately 100 RU. Solutions containing 0.411-100 nM soluble mouse Fc-human NKG2D dimers were injected over the captured NKG2D antibodies and control surfaces at 30 μl/min at 37° C. Surfaces were regenerated between cycles by quick injection of 10 mM glycine, pH 1.8. To obtain kinetic rate constants, double-referenced data were fit to a 1:1 interaction model using Biacore 8K Evaluation software (GE Healthcare). The equilibrium binding constant KD was determined by the ratio of dissociation constant kd and association constant kₐ (kd/kₐ).

[4] = target: B6; experiment: SPR (Biacore 8K), antibody captured on anti-human Fc, soluble mouse Fc-human NKG2D dimer as analyte, 37 C, kd/ka
Procedure: as §1

[5] = target: B6; experiment: SPR (Biacore 8K); lower end of the group's range, tied to ADI-27744 by Table 9
Procedure: as §1

[6] = target: T2, ULBP6 (NKG2D natural ligand); experiment: SPR (Biacore 8K, 25 C), captured mouse Fc-human NKG2D, consecutive injections; ULBP6 injected after A44 (ADI-27744 antibody) was bound
Description: (§2) Briefly, mouse Fc-human NKG2D was captured using an anti-mouse Fc antibody immobilized on a CM5 chip at a density of approximately 100 RU. […] Biacore 8K evaluation software was used for all data analysis.

[7] = target: B6; experiment: SPR (Biacore 8K, 25 C), captured mouse Fc-human NKG2D, consecutive injections; F47 injected after A44 was bound
Description: as §2

Row | binding result [1] | koff [3] [s⁻¹] | kon [3] [M⁻¹ s⁻¹] | Kd [4] [nM] | Binder | other results
1 | binds |  |  |  | B1 | binding result [2]: binds
2 | binds |  |  |  | B2 | binding result [2]: binds
3 |  | 0.00489 | 395000 | 12.4 | B3 | 
4 | binds |  |  |  | B4 | 
5 |  | 0.00299 | 295000 | 10.1 | B5 | Kd [5]: 10 to 62 nM
6 |  |  |  |  | B6 | binding result [6]: binds
7 |  |  |  |  | B7 | binding result [7]: binds
8 |  | 0.0225 | 443000 | 50.7 | B8 | 
9 |  | 0.0487 | 832000 | 58.5 | B9 | 
